The record followed here is patent US20170240645A1 (Genentech, published 2017).

In assay [1] the target is T1, human PMEL17 (human, UniProt P40967 25-661).
T1 construct: Untagged PMEL17 as it occurs on melanoma cell lines, normal human melanocytes, PC3 cells stably expressing PMEL17 cDNA, and in human tissue sections; also called Melanocyte protein PMEL17
T1 sequence: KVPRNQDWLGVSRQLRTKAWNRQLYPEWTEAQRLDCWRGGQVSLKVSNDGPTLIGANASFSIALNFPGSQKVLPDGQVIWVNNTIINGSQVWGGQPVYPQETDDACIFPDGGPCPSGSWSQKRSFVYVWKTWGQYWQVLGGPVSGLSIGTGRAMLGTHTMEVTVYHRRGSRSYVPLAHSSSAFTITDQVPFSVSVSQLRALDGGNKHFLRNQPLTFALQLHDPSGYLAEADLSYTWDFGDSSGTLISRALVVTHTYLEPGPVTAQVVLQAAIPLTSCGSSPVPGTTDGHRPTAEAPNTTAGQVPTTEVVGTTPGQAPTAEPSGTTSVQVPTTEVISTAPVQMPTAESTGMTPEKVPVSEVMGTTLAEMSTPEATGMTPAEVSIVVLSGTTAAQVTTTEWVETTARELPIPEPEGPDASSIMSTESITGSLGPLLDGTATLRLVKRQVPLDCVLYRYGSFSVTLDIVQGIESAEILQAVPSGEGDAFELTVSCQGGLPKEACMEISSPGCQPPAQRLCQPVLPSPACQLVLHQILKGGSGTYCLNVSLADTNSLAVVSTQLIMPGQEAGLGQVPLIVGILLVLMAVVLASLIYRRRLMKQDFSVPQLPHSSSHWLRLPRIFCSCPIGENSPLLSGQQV
The assay is described as follows: FACS on live cells, hybridoma supernatant. An excerpt: After 10-14 days, the supernatants were harvested and screened by ELISA and FACS. For FACS analysis, melanoma cell lines SK-MEL-23 (provided by Paul Robbins, Center for Cancer Research, Tumor Immunology Section), 1300mel (provided by Paul Robbins, Center for Cancer Research, Tumor Immunology Section), SKMELS (ATCC HTB-70), and UACC257 (National Cancer Institute), normal melanocytes (Invitrogen, Carlsbad, Calif.), and the prostate cancer cell line PC3 stably expressing human PMEL17 were contacted with antibody. One antibody from the PMEL17-immunized mice, designated 17A9, reacted strongly by fluorescent activated cell sorting (FACS) with live melanoma cells, normal human melanocytes and a PC3 cell line stably expressing PMEL17 cDNA, but not the parental PC3 cell line. Another antibody, 77E6, obtained from the DNA-immunized mice, was also positive by FACS, although 77E6 reacted with live cell lines expressing PMEL17 somewhat inconsistently and more weakly than 17A9.

In assay [2] the target is T2, PMEL17 25-105 with an N-terminal gD tag and a C-terminal GPI anchor (human, UniProt P40967 25-105, C-terminal GPI anchor).
T2 construct: C-terminal deletion, transiently expressed on 293 cells
T2 sequence: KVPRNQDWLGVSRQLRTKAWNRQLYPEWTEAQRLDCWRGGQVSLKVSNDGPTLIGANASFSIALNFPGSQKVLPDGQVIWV
The assay is described as follows: FACS on transiently transfected 293 cells. From the text: (§1) In addition, C-terminal deletions with an N-terminal gD tag and a C-terminal GPI anchor were transiently transfected into 293 cells and analyzed for antibody binding by FACS. The C-terminal deletions tested included PMEL172₅₋₁₂₅, PMEL17₂₅₋₁₀₅, PMEL17₂₅₋₈₅, PMEL17₂₅₋₆₅, and PMEL17₂₅₋₄₅.

In assay [3] the target is T3, PMEL17 25-125 with an N-terminal gD tag and a C-terminal GPI anchor (human, UniProt P40967 25-125, C-terminal GPI anchor).
T3 construct: C-terminal deletion, transiently expressed on 293 cells
T3 sequence: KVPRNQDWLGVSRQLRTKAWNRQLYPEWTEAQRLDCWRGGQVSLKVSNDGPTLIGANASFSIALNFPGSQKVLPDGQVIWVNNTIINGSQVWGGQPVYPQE
As to the kind of experiment: FACS on transiently transfected 293 cells.
Description: as §1

Assay [4] has as its target T4, PMEL17 25-85 with an N-terminal gD tag and a C-terminal GPI anchor (human, UniProt P40967 25-85, C-terminal GPI anchor).
T4 construct: C-terminal deletion, transiently expressed on 293 cells
T4 sequence: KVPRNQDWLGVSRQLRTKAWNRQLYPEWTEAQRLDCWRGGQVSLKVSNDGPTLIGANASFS
As to the kind of experiment: FACS on transiently transfected 293 cells.
Description: as §1

The target in assay [5] is T5, PMEL17 25-65 with an N-terminal gD tag and a C-terminal GPI anchor (human, UniProt P40967 25-65, not fully specified; C-terminal GPI anchor).
T5 construct: C-terminal deletion, transiently expressed on 293 cells
T5 chain: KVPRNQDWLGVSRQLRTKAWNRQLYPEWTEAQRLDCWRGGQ
As to the kind of experiment: FACS on transiently transfected 293 cells.
Description: as §1

The target of assay [6] is T6, PMEL17 N-terminal deletion mutant Δ100 (human, UniProt P40967 101-661).
T6 construct: the real construct lacks the N-terminal part; Tested in cell lysates by immunoblot
T6 sequence: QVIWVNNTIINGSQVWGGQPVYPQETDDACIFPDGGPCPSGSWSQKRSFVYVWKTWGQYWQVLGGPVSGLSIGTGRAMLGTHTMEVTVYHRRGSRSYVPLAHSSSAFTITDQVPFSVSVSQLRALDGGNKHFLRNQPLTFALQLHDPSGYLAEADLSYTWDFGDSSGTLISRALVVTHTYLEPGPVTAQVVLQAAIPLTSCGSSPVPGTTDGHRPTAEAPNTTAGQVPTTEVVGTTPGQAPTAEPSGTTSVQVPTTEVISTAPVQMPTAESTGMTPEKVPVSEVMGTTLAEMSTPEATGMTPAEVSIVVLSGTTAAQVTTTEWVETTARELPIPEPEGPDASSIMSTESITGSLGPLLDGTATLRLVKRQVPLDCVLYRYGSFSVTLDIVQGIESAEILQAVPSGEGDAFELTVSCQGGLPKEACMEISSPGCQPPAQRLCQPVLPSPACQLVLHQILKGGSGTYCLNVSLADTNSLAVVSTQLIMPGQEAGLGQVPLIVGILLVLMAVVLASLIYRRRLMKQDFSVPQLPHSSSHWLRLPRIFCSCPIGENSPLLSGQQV
The assay is described as follows: immunoblot of cell lysates. (Immunoblotting shows a protein as a band on a membrane.)

B1: 17A9 (antibody, V domains shown)
VH: EVQLQQSGPELVKPGASMKISCKSSGYSFTRYTMNWVKQSHGKNLEWIGVINPYNGGTVYNQKFKGKATLTVDKSSSTAYMELLSLTSEDSAVYYCARTDYDGYAMDYWGQGTSVTVSS
VL: DVQITQSPSYLAASPGETITINCRATKSISKYLAWYQEQPGKTNNLLIYSGSTLQSGIPSRFSGSGSGTDFTLTISSLEPEDFAMYYCQQHNEYPYTFGSGTKLEIK
notes: Mouse monoclonal antibody from a hybridoma (mice immunized with PMEL17 ECD-Fc); also called anti-PMEL17 antibody 17A9
As for B1, the binding result in assay [1] is “binds”; in assay [2] it was “no binding”; in assay [3] it was “binds”; in assay [4], “no binding”; in assay [5], “no binding”; in assay [6], “no binding”.
